Data as given in patent publication EP4803149A2 (Lyvgen Biopharma Holdings Limited, dated 2026).
Where a chain is given by its changes, count along the chain named.

B1: Ly1966 (multi-specific antibody)
chain 1: QVQLQQSGAELVRPGSSVKISCKASGYAFSSYWMNWVKQRPGQGLEWIGQIWPGDGDTNYNGKFKGKATLTADESSSTAYMQLSSLASEDSAVYFCARRETTTVGRYYYAMDYWGQGTTVTVSSASTKGPSVFPLAPSSKSTSGGTAALGCLVKDYFPEPVTVSWNSGALTSGVHTFPAVLQSSGLYSLSSVVTVPSSSLGTQTYICNVNHKPSNTKVDKKVEPKSCGGGGSGGGGSGGGGSGGGGSEVQLVESGGGLVQPGGSLRLSCAASGFTFSTYAMNWVRQAPGKGLEWVGRIRSKYNNYATYYADSVKGRFTISRDDSKNSLYLQMNSLKTEDTAVYYCVRHGNFGNSYVSWFAYWGQGTLVTVSSGGGGSDKTHTCPPCPAPEAAGPSVFLFPPKPKDTLMISRTPEVTCVVVDVSHEDPEVKFNWYVDGVEVHNAKTKPREEQYNSTYRVVSVLTVLHQDWLNGKEYKCKVSNKALPAPIEKTISKAKGQPREPQVYTLPPSREEMTKNQVSLWCLVKGFYPSDIAVEWESNGQPENNYKTTPPVLDSDGSFFLYSKLTVDKSRWQQGNVFSCSVMHEALHNHYTQKSLSLSPGGGGGSGGGGSGGGGSGGGGSQVQLVQSGAEVKKPGASVKVSCKASGYTFAGFEMHWVRQAPGQGLEWMGAIDPKTGGTDYNQKFKDRVTMTRDTSISTAYMELSRLRSDDTAVYYCARDLGYFDVWGQGTLVTVSS
chain 2: QVQLQQSGAELVRPGSSVKISCKASGYAFSSYWMNWVKQRPGQGLEWIGQIWPGDGDTNYNGKFKGKATLTADESSSTAYMQLSSLASEDSAVYFCARRETTTVGRYYYAMDYWGQGTTVTVSSASTKGPSVFPLAPSSKSTSGGTAALGCLVKDYFPEPVTVSWNSGALTSGVHTFPAVLQSSGLYSLSSVVTVPSSSLGTQTYICNVNHKPSNTKVDKKVEPKSCGGGGSGGGGSGGGGSGGGGSQAVVTQEPSLTVSPGGTVTLTCRSSTGAVTTSNYANWVQQKPGQAPRGLIGGTNKRAPWTPARFSGSLLGGKAALTITGAQAEDEADYYCALWYSNLWVFGGGTKLTVLGGGGSDKTHTCPPCPAPEAAGPSVFLFPPKPKDTLMISRTPEVTCVVVDVSHEDPEVKFNWYVDGVEVHNAKTKPREEQYNSTYRVVSVLTVLHQDWLNGKEYKCKVSNKALPAPIEKTISKAKGQPREPQVYTLPPSREEMTKNQVSLSCAVKGFYPSDIAVEWESNGQPENNYKTTPPVLDSDGSFFLVSKLTVDKSRWQQGNVFSCSVMHEALHNRFTQKSLSLSPGGGGGSGGGGSGGGGSGGGGSDIQMTQSPSSLSASVGDRVTITCRASQDIRSNLNWYQQKPGGAVKLLIYYTSRLHSGVPSRFSGSGSGTDYTLTISSLQPEDFATYFCQQSEKLPRTFGGGTKVEIR
chain 3: not shown
notes: CD19/CD3/CD137
B2: Ly1967 (multi-specific antibody)
chain 1: B1 chain 1
chain 2: B1 chain 2 with R575H, F576Y
chain 3: not shown
notes: CD19/CD3/CD137 multi-specific

Molecular target: CD3 (human)
Assay: ELISA or FCM (as in Example 2)

Binder	EC50
B1	0.348 µg/mL
B2	1.56 µg/mL
